Assay results taken from paper PMC3424236, “Siderocalin/Lcn2/NGAL/24p3 Does Not Drive Apoptosis Through Gentisic Acid Mediated Iron Withdrawal in Hematopoietic Cell Lines” (PLoS ONE, 2012).

Molecular target: T1, Scn (Mus musculus, UniProt P11672)
T1 construct: made in house; host or cells: E. coli
T1 sequence (P11672 21-200): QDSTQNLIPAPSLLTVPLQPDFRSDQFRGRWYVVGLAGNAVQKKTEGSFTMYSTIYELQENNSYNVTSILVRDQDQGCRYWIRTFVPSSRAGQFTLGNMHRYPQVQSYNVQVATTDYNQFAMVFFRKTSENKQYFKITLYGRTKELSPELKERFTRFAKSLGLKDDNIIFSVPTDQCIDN
Assay: Binding of BOCT subdomains and loop peptides to Scn (SPR, SEC)
Set-up: species or system murine
Protocol: NTD^1–102 and CTD^477–520 were expressed recombinantly in E. coli, the former as a His-tagged, periplasmically-targeted construct and the latter as a cytoplasmically-targeted, cleavable GST-fusion (Figures 5C and 5D). Binding of NTD or CTD to Scn was assayed by SEC (e. g., Figure 5E) and SPR (e. g., Figure 5D). In Figure 5D, 2086 SPR response units (RUs) of Scn were amine-coupled to CM5 sensor chips (Biacore) following the manufacturer’s protocol. CTD analytes, at concentrations from 3.125 to 50 µM, were injected in duplicate, in random order, for one minute at a flow rate of 20 µl/min on a Biacore 3000 system. Sensorgrams were blank-corrected by the double-subtraction method, using a capped channel as blank. […] Peptides corresponding to predicted cell-surface loops of significant length (>6 residues) in either topology were synthesized commercially (Genscript) with N-terminal biotin groups:
BOCT loop peptides were coupled to strepavidin-coated sensor chips and analyzed with Scn analytes using analogous methodology; as above, no quantifiable responses were detected (data not shown).

B1: NTD: BOCT N-terminal domain, residues 1 through 102, recombinantly expressed in E. coli (protein)
chain: MPSARFGRRGIVLLTLGLVGPCGVGGAAAGSSTGIMALRFLLGFLLAGVDLGVYLMRLELCDPTQRLRVALAGELVGVGGHFLFLGLALVSKDWRFLQRMIT
modifications: left off: His tag, end not stated, state not stated
notes: BOCT N-terminal domain, residues 1 through 102, recombinantly expressed in E. coli
- binding to Scn (SPR, SEC): Comparable results
